Measured values reported in paper PMC5602543.

Legend:
[1] = molecular target: MPyV VP1 (major capsid protein of mouse polyomavirus) as VLPs of the VarB structure (mouse polyomavirus (MPyV)) (UniProt P03090); assay: co-purification with VLPs (SDS-PAGE, Western blot, band densitometry); VP1 and FLAG-Cap-tVP3 co-expressed in insect cells; purified VLPs VarB resolved by SDS-PAGE, anti-FLAG blot; densities of Coomassie-stained bands measured
[2] = molecular target: VarC (VP1-Cap-His: entire PCV2b Cap fused to the C-terminus of MPyV VP1) (mouse polyomavirus (MPyV) | porcine circovirus 2b (PCV2b)) (UniProt P03090); assay: native gel or EMSA; blue native PAGE (BN-PAGE) of purified VarC, native 3-12% gradient gel, Gelcode staining

**Q.** What does the source list for “FLAG-Cap-tVP3 (entire PCV2b Cap fused with truncated MPyV minor capsid protein VP3)”?
**A.** stoichiometry N (FLAG-Cap-tVP3 molecules per one particle) [1]: 12; stoichiometry N ([1]; scale: molecules of Cap protein per one VLP): 14

**Q.** For “VarC (VP1-Cap-His: entire PCV2b Cap fused to the C-terminus of MPyV VP1) (from UniProt P03090 1-383)”, which stoichiometry N [2] is on record?
**A.** Its stoichiometry N is 10.
